Literature values in article PMC12525728, “Safety, Pharmacokinetics, Translational and Molecular Mechanistic Insights on the Prostate Cancer Recurrence Suppressor Pseurotin A” (Molecules, 2025).
Where two headings read alike, the source gives them in different places.

Parameters: method as in PMID 39441027
Details: cited from earlier work; for relative % reduction for LDL-C: propensity score matching analysis

B1: evolocumab (antibody, chains of the INN, looked up, V domains shown)
VH: EVQLVQSGAEVKKPGASVKVSCKASGYTLTSYGISWVRQAPGQGLEWMGWVSFYNGNTNYAQKLQGRGTMTTDPSTSTAYMELRSLRSDDTAVYYCARGYGMDVWGQGTTVTVSS
VL: ESALTQPASVSGSPGQSITISCTGTSSDVGGYNSVSWYQQHPGKAPKLMIYEVSNRPSGVSNRFSGSKSGNTASLTISGLQAEDEADYYCNSYTSTSMVFGGGTKLTVL
notes: FDA-approved marketed humanized monoclonal antibody that interferes with the PCSK9-LDLR PPI
For B1, the total cholesterol reduction (clinical trials, after 8 dosing weeks) is given as −26.5%, the “relative % reduction for LDL-C” value (females) is given as −42.7% and the “relative % reduction for LDL-C” value (males) is given as −54.4%.
